B1: GLuc2-NS2 (hepatitis C virus nonstructural 2 protein, wild type) [hepatitis C virus (J6/JFH genome)] / GLuc1-tagged μ subunit of the AP-1A complex [not stated] (parent)
chain 1: YDASVHGQIGAALLVLITLFTLTPGYKTLLSRFLWWLCYLLTLAEAMVQEWAPPMQVRGGRDGIIWAVAIFCPGVVFDITKWLLAVLGPAYLLKGALTRVPYFVRAHALLRMCTMVRHLAGGRYVQMVLLALGRWTGTYIYDHLTPMSDWAANGLRDLAVAVEPIIFSPMEKKVIVWGAETAACGDILHGLPVSARLGREVLLGPADGYTSKGWSLL
chain 2: MSASAVYVLDLKGKVLICRNYRGDVDMSEVEHFMPILMEKEEEGMLSPILAHGGVRFMWIKHNNLYLVATSKKNACVSLVFSFLYKVVQVFSEYFKELEEESIRDNFVIIYELLDELMDFGYPQTTDSKILQEYITQEGHKLETGAPRPPATVTNAVSWRSEGIKYRKNEVFLDVIESVNLLVSANGNVLRSEIVGSIKMRVFLSGMPELRLGLNDKVLFDNTGRGKSKSVELEDVKFHQCVRLSRFENDRTISFIPPDGEFELMSYRLNTHVKPLIWIESVIEKHSHSRIEYMIKAKSQFKRRSTANNVEIHIPVPNDADSPKFKTTVGSVKWVPENSEIVWSIKSFPGGKEYLMRAHFGLPSVEAEDKEGKPPISVKFEIPYFTTSGIQVRYLKIIEKSGYQALPWVRYITQNGDYQLRTQ
B2: GLuc2-NS2 (hepatitis C virus nonstructural 2 protein, wild type) [hepatitis C virus (J6/JFH genome)] / GLuc1-tagged μ subunit of the AP-1B complex [not stated] (parent)
chain 1: B1 chain 1
chain 2: MSASAVFILDVKGKPLISRNYKGDVAMSKIEHFMPLLVQREEEGALAPLLSHGQVHFLWIKHSNLYLVATTSKNANASLVYSFLYKTIEVFCEYFKELEEESIRDNFVIVYELLDELMDFGFPQTTDSKILQEYITQQSNKLETGKSRVPPTVTNAVSWRSEGIKYKKNEVFIDVIESVNLLVNANGSVLLSEIVGTIKLKVFLSGMPELRLGLNDRVLFELTGRSKNKSVELEDVKFHQCVRLSRFDNDRTISFIPPDGDFELMSYRLSTQVKPLIWIESVIEKFSHSRVEIMVKAKGQFKKQSVANGVEISVPVPSDADSPRFKTSVGSAKYVPERNVVIWSIKSFPGGKEYLMRAHFGLPSVEKEEVEGRPPIGVKFEIPYFTVSGIQVRYMKIIEKSGYQALPWVRYITQSGDYQLRTS

Our source for the ratio to parent values is publication PMC5850324, “Interactions between the Hepatitis C Virus Nonstructural 2 Protein and Host Adaptor Proteins 1 and 4 Orchestrate Virus Release” (mBio, 2018).

The variants in one test derive from B1. The test can be described thus: PCA (protein-fragment complementation assay). As to conditions: with GLuc1-tagged μ subunit of the AP-1A complex; parent: 1; read off a plot.
For the variant chain 1 L216A, the ratio to parent worked out at 0.56. For the variant chain 1 L202A, the ratio to parent came out at 0.71. Turning to chain 1 L217A, the ratio to parent came to 0.68. As to chain 1 E200A, the ratio to parent is 1. The same measure, in the same setting: the value for chain 1 L202A L217A was 0.38. As to chain 1 D207A, the ratio to parent was determined as 0.74. With chain 1 L203A, the ratio to parent is 0.67. For chain 1 L202A L203A L216A L217A, the ratio to parent amounted to 0.33.

The variants in a further test derive from B2. In words: PCA (protein-fragment complementation assay). As to conditions: with GLuc1-tagged μ subunit of the AP-1B complex; parent: 1; read off a plot.
Regarding chain 1 L217A, the ratio to parent was determined as 0.76. With chain 1 E200A, the ratio to parent was found to be 0.97. Consider chain 1 L202A L217A, for which the ratio to parent amounted to 0.55.

For the variant chain 1 L202A L203A L216A L217A, the ratio to parent was 0.47.

Consider chain 1 L216A, for which the ratio to parent was 0.77. chain 1 D207A: the ratio to parent turned out to be 0.79. As for chain 1 L203A, the ratio to parent is 0.67.

For the variant chain 1 L202A, the ratio to parent came out at 0.8.
